# T1: human VEGFR-3 (human, UniProt P35916 25-775, limits assumed)
# T1 construct: also called flt-4
# T1 sequence (looked up): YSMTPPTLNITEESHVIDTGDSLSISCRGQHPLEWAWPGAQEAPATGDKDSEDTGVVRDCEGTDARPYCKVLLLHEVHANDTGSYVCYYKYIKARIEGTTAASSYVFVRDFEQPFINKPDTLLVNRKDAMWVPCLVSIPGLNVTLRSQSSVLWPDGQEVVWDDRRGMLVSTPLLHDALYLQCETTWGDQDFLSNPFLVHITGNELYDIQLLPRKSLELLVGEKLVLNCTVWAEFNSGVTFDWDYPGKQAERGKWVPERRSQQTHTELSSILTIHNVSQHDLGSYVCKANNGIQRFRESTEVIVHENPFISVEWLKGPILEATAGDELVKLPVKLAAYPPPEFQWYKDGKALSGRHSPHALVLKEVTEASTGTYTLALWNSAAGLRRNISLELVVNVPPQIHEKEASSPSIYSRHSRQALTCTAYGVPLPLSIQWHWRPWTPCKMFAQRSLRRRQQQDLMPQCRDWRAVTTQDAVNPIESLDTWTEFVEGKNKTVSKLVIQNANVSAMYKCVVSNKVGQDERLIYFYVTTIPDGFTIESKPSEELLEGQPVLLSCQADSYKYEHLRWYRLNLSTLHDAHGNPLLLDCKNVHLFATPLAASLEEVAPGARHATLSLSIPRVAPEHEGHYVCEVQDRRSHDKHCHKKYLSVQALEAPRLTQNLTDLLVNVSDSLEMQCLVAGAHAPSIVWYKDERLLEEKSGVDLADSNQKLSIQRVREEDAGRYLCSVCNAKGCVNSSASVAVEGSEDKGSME
# B1: 322A6 (antibody, V domains shown)
# VH: EVQLQQSGPQLVRPGASAKISCKASGYAFTTYWMHWVKQRPGQGLEWIGMIDFSDSETKLNQRFKGKATLTVDKSSSTAYMQLSSPTSEDSAVYYCARDVRGNFDVWGAGTTVTVSS
# VL: DIVLTQSPASLAVSLGQRATISCRASKSVSTSGYSYMHWYQQKPGQPPKLLIYLASNLESGVPARFSGSGSGTDFTLNIHPVEEEDAATYYCQHSRELPWTFGGGTKLEIKR
# notes: Expressed as a full-length antibody in FreeStyle 293 cells from mouse-derived VH and VL; It was detected with anti-human IgG and anti-human kappa; also called 322A6 (45); c45
# B2: 12A6 (antibody, V domains shown)
# VH: QVQLQQSGPELVKPGASVKVSCKASGYSFTDYSMYWVKQSHGKSLEWIGYIDPYNDDTSYKQKFKGKATLTVDKSSSTAFMHLNSLTSEDSAVYYCAKGYADAMDYWGQGTSVTVSS
# VL: DIQMIQSPSSLSASLGDTITITCHASQNINVWLSWYQQKPGNIPKLLIYKASNLHTGVPSRFSGSGSGTGFTLTISSLQPEDIATYYCQQGQSYPLTFGAGTKLELKR
# notes: Expressed as a full-length antibody in FreeStyle 293 cells and detected with anti-human IgG
# B3: Hu322B1HdH (antibody, V domains shown)
# VH: QVQLVQSGAEVKKPGASVKVSCKASGYAFTTYWMHWVRQAPGQGLEWIGMIDFSDSETKLNQRFKGKATLTVDKSTSTAYMELSSLRSEDTAVYYCARDVRGNFDVWGQGTLVTVSS
# VL: DIQMTQSPSSLSASVGDRVTITCRASKSVSTSGYSYMHWYQQKPGKAPKLLIYLASNLESGVPSRFSGSGSGTDFTLTISSLQPEDFATYYCQHSRELPWTFGQGTKVEIKR
# notes: Humanized 322A6; The expression vector encodes the human kappa light-chain and human IgG1 C regions; also called 322A6(HuB1-Hd); combination clone of heavy chain (HuB1) and light chain (Hd) with 7 amino acid back mutation (7+0)
# Tests used:
# [1] = biological target: mouse VEGFR-2 (mouse, UniProt P35918 20-762); assay: ELISA, plate coated with mouse VEGFR-2, HRP-anti-human IgG, OD450-650; bar chart of two runs (1st, 2nd); antibody concentration not given
# Protocol: (§1) An ELSA plate was coated with 100 μL per well of human VEGFR-2, mouse VEGFR2, human VEGFR1 or human VEGFR3 overnight at 4° C., and then rinsed 3 times with PBS and blocked with 300 μL per well of 5% MPBS for 2 hr at 37° C. The wells were rinsed 3 times with PBS, and 100 μL of anti-VEGFR2 antibody, 2 fold serial dilutions, was added and incubated for 90 min at 37° C. The test solution was discarded and washed 3 times with PBS. Appropriate dilution of HRP-anti-Human IgG antibody in 5% MPBS (1:10000) was added and incubated for 60 min at 37° C., and the wells were washed 3 times with PBS. The wells were developed with 100 μL of substrate solution TMB and the reactions were terminated by adding 50 μL of 1 M sulfuric acid. The color turned yellow and the OD at 650 nm and at 450 nm was assayed.
# [2] = biological target: T1, human VEGFR-3; assay: ELISA, plate coated with hVEGFR3 (0.1 µg/mL), antibody titration, OD450-650
# Protocol: as §1
# [3] = biological target: T2, human VEGFR-2 (domains 1 to 7) (human, UniProt P35968 20-764); assay: ELISA on VEGFR-2 D1-7 and point mutants mut.1 to mut.10, antibody titration 6.86E-05 to 0.15 ug/ml, OD450
# T2 construct: The immunogen was VEGFR2-Fc-His and panning used VEGFR2-His; also called R2 D1-7; KDR
# [4] = biological target: T2, human VEGFR-2 (domains 1 to 7); assay: kinetic analysis with Rmax in RU, VEGFR-2 (domains 1 to 7) as analyte; method not named
# [5] = biological target: T3, human VEGFR-1 (human, UniProt P17948 27-758, limits assumed); assay: ELISA, plate coated with hVEGFR1 (0.1 µg/mL), antibody titration, OD450-650
# T3 construct: also called flt-1
# Protocol: as §1
# [6] = biological target: T2, human VEGFR-2 (domains 1 to 7); assay: ELISA and BIAcore; no numbers given
# T2 sequence (P35968 20-764 Q472H limits assumed): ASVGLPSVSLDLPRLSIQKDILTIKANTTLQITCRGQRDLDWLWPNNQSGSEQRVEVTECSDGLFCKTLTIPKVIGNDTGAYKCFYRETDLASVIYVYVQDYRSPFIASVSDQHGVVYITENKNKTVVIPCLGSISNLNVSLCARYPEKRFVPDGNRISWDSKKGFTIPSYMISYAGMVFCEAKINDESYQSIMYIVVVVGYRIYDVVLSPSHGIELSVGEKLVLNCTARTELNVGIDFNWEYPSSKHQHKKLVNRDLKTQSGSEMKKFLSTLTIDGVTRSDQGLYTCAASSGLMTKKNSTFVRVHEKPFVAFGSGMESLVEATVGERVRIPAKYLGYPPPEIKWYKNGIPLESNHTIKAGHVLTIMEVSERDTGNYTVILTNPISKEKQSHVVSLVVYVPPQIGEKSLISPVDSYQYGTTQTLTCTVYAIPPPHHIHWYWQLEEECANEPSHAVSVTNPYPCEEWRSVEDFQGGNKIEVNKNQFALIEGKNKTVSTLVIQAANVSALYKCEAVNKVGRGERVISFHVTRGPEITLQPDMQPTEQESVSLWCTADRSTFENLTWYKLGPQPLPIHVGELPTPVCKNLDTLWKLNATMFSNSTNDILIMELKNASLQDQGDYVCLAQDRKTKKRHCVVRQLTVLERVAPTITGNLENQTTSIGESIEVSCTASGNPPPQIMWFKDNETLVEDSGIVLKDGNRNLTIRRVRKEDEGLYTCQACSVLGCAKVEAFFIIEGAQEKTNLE
# Sequence of mouse VEGFR-2 (P35918 20-762 limits assumed): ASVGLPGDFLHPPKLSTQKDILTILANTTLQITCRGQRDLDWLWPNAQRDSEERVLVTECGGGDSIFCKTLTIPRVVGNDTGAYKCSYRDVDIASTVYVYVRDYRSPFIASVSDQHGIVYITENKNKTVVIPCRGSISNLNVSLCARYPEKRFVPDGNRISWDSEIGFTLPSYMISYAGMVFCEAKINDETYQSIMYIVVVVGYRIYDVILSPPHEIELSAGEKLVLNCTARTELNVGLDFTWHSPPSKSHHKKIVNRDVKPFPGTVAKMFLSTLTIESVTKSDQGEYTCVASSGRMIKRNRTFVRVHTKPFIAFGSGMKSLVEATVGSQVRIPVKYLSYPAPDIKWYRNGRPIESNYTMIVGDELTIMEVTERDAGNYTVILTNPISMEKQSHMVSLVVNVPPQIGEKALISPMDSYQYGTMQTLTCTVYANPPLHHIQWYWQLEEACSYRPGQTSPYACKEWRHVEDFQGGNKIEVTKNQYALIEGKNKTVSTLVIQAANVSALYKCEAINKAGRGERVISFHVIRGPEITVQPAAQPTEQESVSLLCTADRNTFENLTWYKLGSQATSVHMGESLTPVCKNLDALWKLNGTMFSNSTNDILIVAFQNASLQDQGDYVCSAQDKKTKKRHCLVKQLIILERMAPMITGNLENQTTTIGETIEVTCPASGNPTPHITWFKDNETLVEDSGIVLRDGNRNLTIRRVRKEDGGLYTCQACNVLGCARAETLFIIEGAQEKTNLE
# T3 sequence (P17948 27-758 limits assumed): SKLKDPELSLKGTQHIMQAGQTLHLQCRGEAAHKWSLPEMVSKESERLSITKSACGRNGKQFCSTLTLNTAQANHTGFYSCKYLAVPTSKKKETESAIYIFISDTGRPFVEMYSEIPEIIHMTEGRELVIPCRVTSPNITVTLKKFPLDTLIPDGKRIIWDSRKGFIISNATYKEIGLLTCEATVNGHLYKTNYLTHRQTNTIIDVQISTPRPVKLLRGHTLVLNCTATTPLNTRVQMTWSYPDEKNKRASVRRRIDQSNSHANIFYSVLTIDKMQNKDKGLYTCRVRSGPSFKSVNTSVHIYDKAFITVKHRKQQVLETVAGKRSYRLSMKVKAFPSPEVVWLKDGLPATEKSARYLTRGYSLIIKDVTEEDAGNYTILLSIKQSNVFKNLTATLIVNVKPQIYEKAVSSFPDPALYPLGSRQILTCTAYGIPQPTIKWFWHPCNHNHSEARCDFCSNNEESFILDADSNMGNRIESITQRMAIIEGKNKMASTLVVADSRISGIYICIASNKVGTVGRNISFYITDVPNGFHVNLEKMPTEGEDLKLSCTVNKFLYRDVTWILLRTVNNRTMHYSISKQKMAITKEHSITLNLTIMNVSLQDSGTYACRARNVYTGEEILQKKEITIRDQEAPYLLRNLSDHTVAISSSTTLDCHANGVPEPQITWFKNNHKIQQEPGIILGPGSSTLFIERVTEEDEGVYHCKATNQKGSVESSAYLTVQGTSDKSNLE
Binder,binding result [1],binding result [2],EC50 (read off the curve) [3],Kd [4],binding result [5],binding result [6]
B1,binds,no binding (tested: about 1.3e-7 M),~5 ng/mL,0.673 nM,no binding (tested: 20 µg/mL (about 1.3e-7 M)),–
B2,no binding,–,–,4.6 nM,–,–
B3,–,–,–,–,–,binds
